Source: patent publication US20200010567A1 (NEURIMMUNE, published 2020)

Key:
[1] = biological target: T1, BSA-coupled (PR)15 DPR protein peptide (bovine, conjugated via a bifunctional linker (SMCC) to bovine serum albumin); assay: indirect ELISA, BSA-coupled peptide coated, antibody titrated [also D00016 FIG. 3M]
T1 construct: also called BSA-(PR)15
Method: (§1) In brief, dipeptide repeat proteins were synthesized and purified by Schafer-N(Copenhagen, Denmark): (GA)₁₅: H-CHHHHHH(GA)₁₅-OH; (GP)₁₅: H-C(GP)₁₅-OH; (GR)₁₅: H-C(GR)₁₅-OH; (PA)₁₅: H-C(PA)₁₅-OH; (PR)₁₅: H—C(PR)₁₅-OH. DPR protein peptides were then conjugated via a bifunctional linker (SMCC) to bovine serum albumin (BSA). 96-well microplates (Corning Incorporated, Corning, USA) were coated with BSA-coupled or -uncoupled dipeptide repeat protein peptides at a concentration of either 5 μg/ml or 20 μg/ml in coating buffer (15 mM Na₂CO₃, 35 mM NaHCO₃, pH 9.42). Non-specific binding sites were blocked for 1 h at room temperature with PBS/0.1% Tween®-20 containing 2% BSA (Sigma-Aldrich, Buchs, Switzerland). Primary antibodies were diluted to the indicated concentrations and incubated 1 h at room temperature, followed by incubation with a donkey anti-human IgG Fcγ-specific antibody conjugated with HRP (Jackson ImmunoResearch Laboratories, Inc., West Grove, USA). Binding was determined by measurement of HRP activity in a standard colorimetric assay. EC₅₀ values were estimated by non-linear regression using GraphPad Prism software (San Diego, USA).

(PR)15: H-C(PR)15-OH = biological target: T2, (PR)15: H-C(PR)15-OH; assay: indirect ELISA, uncoupled peptide coated, antibody titrated [also D00016 FIG. 3M]
T2 construct: synthetic, not coupled to BSA; also called poly-PR DPR protein peptide
T2 peptide: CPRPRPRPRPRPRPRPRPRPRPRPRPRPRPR
Method: as §1

[2] = biological target: T3, BSA-coupled (GP)15 DPR protein peptide (bovine, conjugated via a bifunctional linker (SMCC) to bovine serum albumin); assay: Western blot of BSA-coupled peptides
T3 construct: also called BSA-(GP)15
Method: (§2) Resolved proteins were then electroblotted (Novex® Semi-Dry Blotter, 1 h, 25V) on methanol-activated PVDF membranes (Immobilon®-P Transfer Membrane, Merck & Cie, Schaffhausen, Switzerland) by the use of Novex® NuPAGE® transfer buffer 2× (Life Technologies Europe B.V., Zug, Switzerland). Non-specific binding sites were blocked overnight at 4° C. (or alternatively for 1 h at room temperature) with PBS/0.1% Tween®-20 containing 2% BSA (Sigma-Aldrich, Buchs, Switzerland) (PBST). […] Membranes were washed three times in PBST for 15 min at RT and then incubated with a donkey anti-human IgG Fcγ-specific antibody conjugated with HRP (1:20000 or 1:10000 dilution, Jackson ImmunoResearch Laboratories, Inc., West Grove, USA) for 1 h at room temperature. Antibody binding was determined by membrane development using ECL and ImageQuant 350 detection (GE Healthcare, Otelfingen, Switzerland).
(§3) The binding specificity of the human-derived antibodies to BSA-coupled C9orf72 dipeptide repeat proteins (GA)₁₅, (GP)₁₅, (GR)₁₅, (PA)₁₅ and (PR)₁₅ was determined by Western blot analysis.

[3] = biological target: T4, BSA-coupled (PA)15 DPR protein peptide (bovine, UniProt P02769 25-607, conjugated via a bifunctional linker (SMCC) to bovine serum albumin); assay: Western blot of BSA-coupled peptides
T4 construct: also called BSA-(PA)15
Method: as §2, §3

[4] = biological target: T5, BSA-coupled (GR)15 DPR protein peptide (bovine, UniProt P02769 25-607, conjugated via a bifunctional linker (SMCC) to bovine serum albumin); assay: Western blot of BSA-coupled peptides
T5 construct: also called BSA-(GR)15
Method: as §2, §3

(GP)15: H-C(GP)15-OH = biological target: T6, (GP)15: H-C(GP)15-OH; assay: indirect ELISA, coated peptide
T6 construct: synthetic, not coupled to BSA; also called poly-GP DPR protein peptide
T6 peptide: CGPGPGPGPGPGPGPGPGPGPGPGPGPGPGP
Method: as §1, with “(PR)₁₅: H—C(PR)₁₅-OH. 96-well microplates” for “(PR)₁₅: H—C(PR)₁₅-OH. DPR protein peptides were then conjugated via a bifunctional linker (SMCC) to bovine serum albumin (BSA). 96-well microplates”, “coated with dipeptide repeat” for “coated with BSA-coupled or -uncoupled dipeptide repeat”, “and incubated for 1 h” for “and incubated 1 h”, “Diego, USA). The binding specificity and EC₅₀ of human-derived antibodies for C9orf72 dipeptide repeat protein peptides (GA)₁₅, (GP)₁₅, (GR)₁₅, (PA)₁₅ and (PR)₁₅ were determined by indirect ELISA.” for “Diego, USA).”

(GR)15: H-C(GR)15-OH = biological target: T7, (GR)15: H-C(GR)15-OH; assay: indirect ELISA, coated peptide
T7 construct: synthetic, not coupled to BSA; also called poly-GR DPR protein peptide
T7 peptide: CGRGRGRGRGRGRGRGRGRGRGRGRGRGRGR
Method: as §1, with “(PR)₁₅: H—C(PR)₁₅-OH. 96-well microplates” for “(PR)₁₅: H—C(PR)₁₅-OH. DPR protein peptides were then conjugated via a bifunctional linker (SMCC) to bovine serum albumin (BSA). 96-well microplates”, “coated with dipeptide repeat” for “coated with BSA-coupled or -uncoupled dipeptide repeat”, “and incubated for 1 h” for “and incubated 1 h”, “Diego, USA). The binding specificity and EC₅₀ of human-derived antibodies for C9orf72 dipeptide repeat protein peptides (GA)₁₅, (GP)₁₅, (GR)₁₅, (PA)₁₅ and (PR)₁₅ were determined by indirect ELISA.” for “Diego, USA).”

[5] = biological target: T8, (GA)15: H-CHHHHHH(GA)15-OH; assay: indirect ELISA, uncoupled peptide coated, antibody titrated [also D00011 FIG. 2M]
T8 construct: synthetic, not coupled to BSA; also called poly-GA DPR protein peptide
T8 peptide: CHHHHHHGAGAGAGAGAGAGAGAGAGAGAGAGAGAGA
Method: as §1, with “(PR)₁₅: H—C(PR)₁₅-OH. 96-well microplates” for “(PR)₁₅: H—C(PR)₁₅-OH. DPR protein peptides were then conjugated via a bifunctional linker (SMCC) to bovine serum albumin (BSA). 96-well microplates”, “coated with dipeptide repeat” for “coated with BSA-coupled or -uncoupled dipeptide repeat”, “and incubated for 1 h” for “and incubated 1 h”, “Diego, USA). The binding specificity and EC₅₀ of human-derived antibodies for C9orf72 dipeptide repeat protein peptides (GA)₁₅, (GP)₁₅, (GR)₁₅, (PA)₁₅ and (PR)₁₅ were determined by indirect ELISA.” for “Diego, USA).”

(PA)15: H-C(PA)15-OH = biological target: T9, (PA)15: H-C(PA)15-OH; assay: as above
T9 construct: synthetic, not coupled to BSA; also called poly-PA DPR protein peptide
T9 peptide: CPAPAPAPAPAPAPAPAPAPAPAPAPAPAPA
Method: as §1, with “(PR)₁₅: H—C(PR)₁₅-OH. 96-well microplates” for “(PR)₁₅: H—C(PR)₁₅-OH. DPR protein peptides were then conjugated via a bifunctional linker (SMCC) to bovine serum albumin (BSA). 96-well microplates”, “coated with dipeptide repeat” for “coated with BSA-coupled or -uncoupled dipeptide repeat”, “and incubated for 1 h” for “and incubated 1 h”, “Diego, USA). The binding specificity and EC₅₀ of human-derived antibodies for C9orf72 dipeptide repeat protein peptides (GA)₁₅, (GP)₁₅, (GR)₁₅, (PA)₁₅ and (PR)₁₅ were determined by indirect ELISA.” for “Diego, USA).”

T5 sequence (P02769 25-607 limits assumed): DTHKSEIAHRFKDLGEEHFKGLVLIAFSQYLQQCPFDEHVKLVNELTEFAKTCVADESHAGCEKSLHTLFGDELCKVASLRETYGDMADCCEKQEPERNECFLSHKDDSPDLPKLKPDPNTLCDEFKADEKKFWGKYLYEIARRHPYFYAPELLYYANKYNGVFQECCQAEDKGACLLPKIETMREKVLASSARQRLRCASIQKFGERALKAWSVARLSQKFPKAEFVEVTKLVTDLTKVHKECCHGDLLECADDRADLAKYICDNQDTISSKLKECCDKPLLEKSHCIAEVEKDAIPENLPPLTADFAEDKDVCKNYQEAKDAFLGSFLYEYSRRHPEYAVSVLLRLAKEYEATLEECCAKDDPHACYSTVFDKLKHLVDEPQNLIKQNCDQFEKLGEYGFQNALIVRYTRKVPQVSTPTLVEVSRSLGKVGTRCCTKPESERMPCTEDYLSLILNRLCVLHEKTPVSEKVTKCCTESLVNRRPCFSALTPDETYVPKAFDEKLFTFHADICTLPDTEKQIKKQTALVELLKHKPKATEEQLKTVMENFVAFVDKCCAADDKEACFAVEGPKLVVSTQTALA
T1 sequence (P02769 25-607 limits assumed): as above
T4 sequence (P02769 25-607 limits assumed): as above
T3 sequence (P02769 25-607 limits assumed): as above

B1: NI-308.16C10 (antibody, V domains shown)
VH: EVQLVETGGGVVQPGMSLSLSCAATGFTFSSYGMHWVRQGPGKGPEWVAGIWYDGTNKYYGDSVTGRVTISRDNSKNTLFLQMINVRVEDTAVYYCVKDAERVQKWASYIMDVWGQGTTVTVSS
VL: EIVLTQSPGILSLSRGNRVALSCRASRSVNSSYLNWYQQKPGQAPRLLIYGASKRATGISDRFRGTGSGTDFTLTVARLEPEDIAVYYCQHYGAFGQGTKLEIK
notes: Recombinant complete human IgG1, kappa
- EC50 [1]: 91.1 nM
- EC50 ((PR)15: H-C(PR)15-OH): 3.5 nM
- binding result [2]: no binding
- binding result [3]: no binding
- binding result [4]: no binding
- binding result ((GP)15: H-C(GP)15-OH): no binding
- binding result ((GR)15: H-C(GR)15-OH): no binding
- EC50 [5]: 55.1 nM
- binding result ((PA)15: H-C(PA)15-OH): no binding (tested: about 4x10^5 pM (last point))
